Data on 17 molecules can be found in patent US20240325562A1 (LINXIS B V, published 2024).

For assay [1], the target named is T1, recombinant human extracellular domain of IGF2R (human, UniProt P11717 41-2304).
T1 construct: extracellular domain; Recombinant, immobilized on plates; also called hIGF2R-ECD; human IGF2R ectodomain (ECD)
In words: direct binding assay of the Alexa Fluor 647 conjugate on hIGF2R-ECD, one-site specific binding fit. Here is the method:
(§1) These conjugates were then subjected to direct binding assays on immobilized hIGF2R-ECD, meaning that plates were read out immediately after washing, without additional detection steps. […] For detailed analysis, binding parameters KD and Bₘₐₓ were calculated in Graphpad (version 8.3), using one-site specific binding analysis (FIG. 8D).
Based on their high affinity and binding to non-overlapping receptor epitopes, VHHs 13F11 and 13E8 were selected for the design of biparatopic and bivalent VHH constructs. Two VHHs were fused with a flexible linker, consisting of three Gly-Gly-Gly-Gly-Ser repeats (FIG. 8A). The sequences were codon optimized for expression in E. coli and obtained as synthesized DNA fragments from GeneArt. The DNA fragments encoding VHHs were cloned into a vector pET28-based vector introducing a C-terminal free cysteine for site-directed conjugation and His6 tag for IMAC purification (FIG. 8A). The VHH constructs were produced and purified as described in example 4. […] In a similar binding assay, IR dye 800 (IRD800) conjugates were prepared (as outlined in example 10.2) of the monomeric VHHs 13F11 and 13E8, the biparatopic VHH construct 13F11-13E8, the reciprocal biparatopic construct 13E8-13F11, the bivalent VHH construct 13F11-13F11, and the non-binding (control-) VHH R2. Conjugated constructs were then subjected to binding assay as described above.

The target of assay [2] is T2, recombinant rPDGFRB ectodomain (rat, UniProt Q05030 32-531).
T2 construct: extracellular domain; also called rPDGFRB-ECD; rat PDGFRB ECD
T2 sequence (looked up): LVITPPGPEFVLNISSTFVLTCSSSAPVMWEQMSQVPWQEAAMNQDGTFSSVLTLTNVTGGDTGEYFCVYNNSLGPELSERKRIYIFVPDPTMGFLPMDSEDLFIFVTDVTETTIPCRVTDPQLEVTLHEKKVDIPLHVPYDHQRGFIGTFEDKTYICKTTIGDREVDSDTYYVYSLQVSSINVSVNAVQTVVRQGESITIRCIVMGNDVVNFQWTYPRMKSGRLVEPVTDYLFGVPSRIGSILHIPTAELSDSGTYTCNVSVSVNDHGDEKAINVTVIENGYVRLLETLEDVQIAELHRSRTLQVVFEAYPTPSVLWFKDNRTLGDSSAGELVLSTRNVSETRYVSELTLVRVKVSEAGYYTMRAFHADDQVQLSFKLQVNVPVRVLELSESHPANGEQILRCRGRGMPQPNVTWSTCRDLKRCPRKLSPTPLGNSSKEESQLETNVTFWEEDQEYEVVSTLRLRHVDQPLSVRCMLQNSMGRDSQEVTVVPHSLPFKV
In words: phage ELISA and binding assay on rPDGFRB-ECD; values only in FIG. 6.

Assay [3] addresses T3, recombinant hPDGFRB ectodomain (human, UniProt P09619 33-532).
T3 construct: extracellular domain; also called hPDGFRB-ECD; human PDGFRB ECD
As to the kind of experiment: phage ELISA and binding assay on hPDGFRB-ECD; values only in FIG. 5.

In a further assay the target is human IGF2R on cells (human, UniProt P11717 41-2491). As to the kind of experiment: cell-based or functional assay.
Another assay concerns the target rat IGF2R on cells (rat, UniProt A0A8I6GLL6 43-2479). In words: cell-based or functional assay.
Assay [4] concerns the target T1, recombinant human extracellular domain …. In words: direct binding assay of the fluorescent conjugate on immobilized hIGF2R-ECD, one-site specific binding fit. As for the experimental part:
as §1

Assay [5] shares this target. In words: binding assay on immobilized hIGF2R-ECD, detection with anti-VHH antibody. As for the experimental part: The 15 unique hIGF2R-binding VHH (Example 2.1, FIG. 2) were produced and purified as described in examples 3 and 4. The apparent affinities were determined through binding assay on immobilized hIGF2R-ECD. Briefly, three-fold serial dilution series, starting from 1 μM, of each VHH were plated onto hIGF2R-ECD coated plates. VHH were allowed to bind for two hours after which plates were washed. Then, bound VHH was detected using a VHH-specific IgG antibody, followed by an IRD800CW-conjugated IgG-specific antibody. Plates were read out by fluorimetry.

Assay [6] shares this target. As to the kind of experiment: competition assay on immobilized hIGF2R-ECD, competitor for 13F11-A647. Here is the method:
Biparatopic VHH constructs contain two VHH which bind to a different epitope, i.e. which are non-competitive binders. To identify (a) pair(s) of non-competitive binders, competition assays were performed. In the example shown, an Alexa fluor-conjugate of the high affine VHH 13F11 was used as the reporter VHH (13F11-A647, see example 10.2). In the assay, a non-saturating amount (10 nM) of 13F11-A647 was incubated with immobilized hIGF2R-ECD in the presence or absence of 250 nM unconjugated competitor VHH to allow competition to take place.

T3 sequence (P09619 33-532): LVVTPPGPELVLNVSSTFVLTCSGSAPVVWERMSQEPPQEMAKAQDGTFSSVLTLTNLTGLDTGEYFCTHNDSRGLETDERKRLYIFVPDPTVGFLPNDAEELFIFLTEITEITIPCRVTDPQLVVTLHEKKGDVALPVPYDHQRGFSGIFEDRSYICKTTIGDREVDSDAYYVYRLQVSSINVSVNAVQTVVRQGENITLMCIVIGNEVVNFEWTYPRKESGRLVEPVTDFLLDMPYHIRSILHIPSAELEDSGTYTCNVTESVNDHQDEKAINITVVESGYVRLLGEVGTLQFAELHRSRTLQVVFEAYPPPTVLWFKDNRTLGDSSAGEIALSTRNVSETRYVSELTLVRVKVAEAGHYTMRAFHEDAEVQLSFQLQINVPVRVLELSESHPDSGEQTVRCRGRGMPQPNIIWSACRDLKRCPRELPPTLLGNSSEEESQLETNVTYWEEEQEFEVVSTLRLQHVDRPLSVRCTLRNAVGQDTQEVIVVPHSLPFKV

B1: 13F11-13F11-A647 (VHH)
chain: EVQLVESGGRLVQPGDSLRLSCAASGRTFSDNAMGWFRQAPGKERRFVAGISWAGGSTYYSDSVKGRFTISRDNAKNTVYLQMNSLKPEDTAVYYCAAGLRAWVQRMPKDYNYWGQGTQVTVSSGGGGSGGGGSGGGGSEVQLVESGGRLVQPGDSLRLSCAASGRTFSDNAMGWFRQAPGKERRFVAGISWAGGSTYYSDSVKGRFTISRDNAKNTVYLQMNSLKPEDTAVYYCAAGLRAWVQRMPKDYNYWGQGTQVTVSS
modifications: Alexa Fluor 647 coupled by maleimide to the C-terminal free cysteine, which is not in the letters
notes: Bivalent tandem VHH; not shown: C-terminal tail: free Cys, possible thrombin site and His6 tag
Regarding B1, the Kd in assay [1] was found to be 3.1 nM.

B2: SP27P (VHH)
VHH: EVQLVESGGGLVQIGDSLRLSCAASGGTFNRYGMGWFRQAPGKEREFVAAIRWDGVDTNYADFVKGRFTISRYNAKNTAYLQMNSLKPEDTAVYYCAADRRGLYTKHAHRYDYWGQGTQVTVSS
notes: From libraries 3 and 4 (raised against rPDGFRB)
B2: the binding result in assay [2] is recorded as “binds”.

B3: SP28P (VHH)
VHH: EVQLVESGGGLVQAGGSLRLSCAASGSIVSFNGINWYRQAPGKQREWVGGITQGGNTMYADSVRGRFTISRDNTKNTMYLQMNSLKPEDTAVYYCRRPPVASWGQGTQVTVSS
notes: as for B2
With B3, in assay [2], the binding result is “binds”.

B4: SP12P (VHH)
VHH: EVQLVESGGGLVQAGGSLRLSCVISGRTSPTYPMGWFRQSPGNEREFVASINWSGGWRNYADSVKGRFTISRDDAKNTVYLQMNSLKPEDTAVYYCARGQYSSGTPVYAHEYAYWGQGTQVTVSS
notes: From libraries 1 and 2 (raised against hPDGFRB)
With B4, in assay [3], the binding result is given as “binds”.

B5: SP20P (VHH)
VHH: EVQLVESGGGLVQAGGSLRLSCVISGRTSPTYPMGWFRQSPGNEREFVASINWSGGWRNYADSVKDRFTISRDDAKNTVYLQMNSLKPEDTAVYYCARGQYSSGTPVYAHEYAYWGQGTQVTVSS
notes: as for B4
With B5, the binding result in assay [3] is on record as “binds”.

B6: 13E8-13F11-IRD800 (bispecific antibody, not shown: small tags and cut ends)
chain: EVQLVESGGGLVQAGGSLRLSCAASRSISPMGWYRQAPGKQRELVAIMPSSGPPIYADSVQGRFTISRDNAKNTVYLQMNSLKPEDTAVYYCNVGGGYWGQGTQVTVSSGGGGSGGGGSGGGGSEVQLVESGGRLVQPGDSLRLSCAASGRTFSDNAMGWFRQAPGKERRFVAGISWAGGSTYYSDSVKGRFTISRDNAKNTVYLQMNSLKPEDTAVYYCAAGLRAWVQRMPKDYNYWGQGTQVTVSS
modifications: IRDye 800CW coupled by maleimide to the C-terminal free cysteine, which is not in the letters
Turning to B6, the “endocytic rate constant, ke” value was roughly 1.5 min⁻¹ with human IGF2R on cells and roughly 0.7 min⁻¹ with rat IGF2R on cells.

B7: 13E8-13F11-A647 (bispecific antibody)
chain: EVQLVESGGGLVQAGGSLRLSCAASRSISPMGWYRQAPGKQRELVAIMPSSGPPIYADSVQGRFTISRDNAKNTVYLQMNSLKPEDTAVYYCNVGGGYWGQGTQVTVSSGGGGSGGGGSGGGGSEVQLVESGGRLVQPGDSLRLSCAASGRTFSDNAMGWFRQAPGKERRFVAGISWAGGSTYYSDSVKGRFTISRDNAKNTVYLQMNSLKPEDTAVYYCAAGLRAWVQRMPKDYNYWGQGTQVTVSS
modifications: Alexa Fluor 647 coupled by maleimide to the C-terminal free cysteine, which is not in the letters
notes: Biparatopic tandem VHH, reciprocal order; not shown: C-terminal tail: free Cys, possible thrombin site and His6 tag
Regarding B7, in assay [1], the Kd came to 2.5 nM.

B8: SP14P (VHH)
VHH: EVQLVESGGGLVQAGDSLRLSCVVSGLTFSRYGMGWFRQATGKEREFVGGISVGSSGTMYPNSVKGRFTISRDNAKSTVYLQMNSLKPEDTAVYFCAAIDQGSFVQQRDYRYWGQGTQVTVSS
notes: as for B4
In the case of B8, the binding result in assay [3] is on record as “binds”.

B9: SP36P (VHH)
VHH: EVQLVESGGGLVQAGGSLRLSCTPSITTAGTTIMAWFRQAPGNEREFVAAIWGSKTAYGDSMKGRLTISRDNVRDNGQKTVFLQMNNLQLQDTATYYCAASSGGYVHSSTSYEIWGRGTQVTVSS
notes: as for B2
As to B9, the binding result in assay [2] is given as “binds”.

B10: 13F11-A647 (VHH)
VHH: EVQLVESGGRLVQPGDSLRLSCAASGRTFSDNAMGWFRQAPGKERRFVAGISWAGGSTYYSDSVKGRFTISRDNAKNTVYLQMNSLKPEDTAVYYCAAGLRAWVQRMPKDYNYWGQGTQVTVSS
modifications: Alexa Fluor 647 is coupled by maleimide chemistry to the C-terminal free cysteine of the expression tail. The dye, that cysteine and the tag are not in the letters.
notes: Fluorescent conjugate of monomeric 13F11; also called labelled 13F11
On to B10, for which the dissociation constant Kd in assay [4] came to 1 nM.

B11: 13F11 (VHH)
VHH: EVQLVESGGRLVQPGDSLRLSCAASGRTFSDNAMGWFRQAPGKERRFVAGISWAGGSTYYSDSVKGRFTISRDNAKNTVYLQMNSLKPEDTAVYYCAAGLRAWVQRMPKDYNYWGQGTQVTVSS
notes: On phage in the phage ELISA; purified from E. coli in the other assays; also called native 13F11; unconjugated 13F11
For B11, the Kd in assay [5] worked out at 0.23 nM.

B12: 13G10 (VHH)
VHH: EVQLVESGGGLVQAGGSLRLSCAASGLTFSSYTMAWYRQAPGKEREVVAAISSGDSIYHEDSVQGRFIISRDNAKNTVYLQMNSLKAEDTAVYYCRANGPGTYWGQGTQVTVSS
notes: On phage in the phage ELISA; purified from E. coli in the other assays
On to B12, for which, in assay [6], the binding result was “binds”.

B13: 13C11 (VHH)
VHH: EVQLVESGGGLVQAGGSLRLSCAASGLTFSSYTMAWYRQAPGKEREVVAAISSGDSIYHEGSVQGRFIISRDNAKNTVYLQMNSLKAEDTAVYYCRANGPGTYWGQGTQVTVSS
notes: as for B12
As to B13, in assay [6], the binding result is reported as “binds”.

B14: 13F11-13E8-A647 (bispecific antibody)
chain: EVQLVESGGRLVQPGDSLRLSCAASGRTFSDNAMGWFRQAPGKERRFVAGISWAGGSTYYSDSVKGRFTISRDNAKNTVYLQMNSLKPEDTAVYYCAAGLRAWVQRMPKDYNYWGQGTQVTVSSGGGGSGGGGSGGGGSEVQLVESGGGLVQAGGSLRLSCAASRSISPMGWYRQAPGKQRELVAIMPSSGPPIYADSVQGRFTISRDNAKNTVYLQMNSLKPEDTAVYYCNVGGGYWGQGTQVTVSS
modifications: Alexa Fluor 647 coupled by maleimide to the C-terminal free cysteine, which is not in the letters
notes: Biparatopic tandem VHH; not shown: C-terminal tail: free Cys, possible thrombin site and His6 tag
B14: in assay [1], the Kd stood at 2.5 nM.

B15: SP30P (VHH)
VHH: EVQLVESGGGLVQAGGSLRLSCAASRGTFGTDIMGWFRQAPGKEREFVAAISWRGANTYYGYSVKGRFTISRDNAKNTMYLQMADLKPEDTADYYCGVHLNGTPYYYASGYRYWGQGTQVTVSS
notes: as for B2
B15: in assay [2], the binding result is “binds”.

B16: SP31P (VHH)
VHH: EVQLVESGGGLVQAGGSLRLSCAASRGTFGTYIMGWFRQAPGKEREFVAAISWRGANTYYGYSVKGRFTISRDNAKNTMYLQMADLKPEDTADYYCGVHLNGTPYYYASGYRYWGQGTQVTVSS
notes: as for B2
Turning to B16, the binding result in assay [2] is “binds”.

B17: SP13P (VHH)
VHH: EVQLVESGGGLVQPGGSLRLSCAASESIFSINYMAWYRQAPGKQRELVAFSIDGSSTNYVDSVRGRFTASRDNAENTLYLQMNSLKPEDTAVYYCYAQGNTWAAGVWGQGTQVTVSS
notes: as for B4
Take B17: the binding result in assay [3] is on record as “binds”.
